Assay [1] has as its target T1, DLL1 antigen (recombinant DLL1 protein) (human, UniProt O00548 18-540, limits assumed).
T1 construct: also called Delta-like 1
T1 sequence (looked up): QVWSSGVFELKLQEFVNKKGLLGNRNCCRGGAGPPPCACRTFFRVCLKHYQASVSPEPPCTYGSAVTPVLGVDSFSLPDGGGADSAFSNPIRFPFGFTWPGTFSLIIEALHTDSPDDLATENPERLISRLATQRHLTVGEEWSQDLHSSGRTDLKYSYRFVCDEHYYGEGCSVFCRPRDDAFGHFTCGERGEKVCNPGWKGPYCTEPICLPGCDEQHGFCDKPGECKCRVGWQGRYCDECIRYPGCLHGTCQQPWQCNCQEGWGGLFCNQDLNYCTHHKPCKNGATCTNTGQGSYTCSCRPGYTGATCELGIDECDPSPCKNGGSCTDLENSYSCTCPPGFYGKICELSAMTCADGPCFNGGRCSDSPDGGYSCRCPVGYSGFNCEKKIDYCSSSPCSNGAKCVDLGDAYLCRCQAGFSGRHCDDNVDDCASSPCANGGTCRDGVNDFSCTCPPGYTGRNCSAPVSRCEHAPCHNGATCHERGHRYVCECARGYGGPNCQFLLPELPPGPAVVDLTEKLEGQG
Briefly: sandwich ELISA, capture AbD33905, detection AbD33905-HRP, DLL1 2 ug/ml.
Description: (§1) As control coating a-Fd (Bio-Rad antibodies, STAR126) at 5 μg/ml in PBS was used. Per well a volume of 20 μl coating solution was used. The Polystyrene ELISA plates were then incubated overnight at 4° C. with a closed lid. […] Subsequently, blocking of non-specific binding sites was performed with 100 μl per well of PBST containing 5% (w/v) BSA (Sigma-Aldrich, A7906-100). This blocking step was conducted at RT for 1-2 h. After removal of the blocking solution, five washes with PBST were performed. Thereafter, 2 μg/ml DLL1 antigen in PBST were added or PBST only (20 μl per well, triplicates were prepared). Incubation with the DLL1 antigen solution or PBST was performed at RT for 1 h. Next, the DLL1 antigen solution or PBST were removed and five washes with PBST were performed. […] After removal of this solution, ten washes with PBST were performed. […] For detection in the ELISA reader (Tecan Infinite M1000Pro Reader, Tecan Austria GmbH) excitation was performed at 320±25 nm and emission was detected at 430±35 nm.

The target in assay [2] is T1, DLL1 antigen (recombinant DLL1 protein). Briefly: sandwich ELISA, capture AbD33905, detection AbD33906-HRP, DLL1 2 ug/ml.
Description: as §1
In the next assay the target is GST. Briefly: ELISA on antigen coated at 5 ug/ml, anti-Strep-HRP secondary antibody.
GST, sequence (P08515 2-218): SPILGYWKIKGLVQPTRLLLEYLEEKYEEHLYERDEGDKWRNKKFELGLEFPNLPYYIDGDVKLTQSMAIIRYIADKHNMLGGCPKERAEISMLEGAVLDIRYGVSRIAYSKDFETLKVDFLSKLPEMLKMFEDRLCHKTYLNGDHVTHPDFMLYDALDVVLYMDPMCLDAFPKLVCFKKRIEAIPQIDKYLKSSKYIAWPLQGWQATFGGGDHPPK
For assay [3], the target named is T1, DLL1 antigen (recombinant DLL1 protein). The assay is described as above.
Description: (§2) The binding specificity of AbD33905 in form of a bivalent Fab fragment fused to alkaline phosphatase followed by a FLAG®-tag and Twin-Strep®-tag was tested in the following ELISA:
(§3) Per well a volume of 20 μl coating solution was used. The Polystyrene ELISA plates were then incubated overnight at 4° C. with a closed lid. […] Subsequently, blocking of non-specific binding sites was performed with 100 μl per well of PBST containing 5% (w/v) non-fat dry milk. This blocking step was conducted at RT for 1-2 h. After removal of the blocking solution, five washes with PBST were performed. Thereafter, AbD33905 in form of a bivalent Fab fragment fused to alkaline phosphatase followed by a FLAG®-tag and Twin-Strep®-tag in PBST was added (20 μl per well). Incubation with this AbD33905 Fab fragment was performed at RT for 1 h. Next, the AbD33905 Fab fragment containing solution was removed and five washes with PBST were performed. Thereafter 20 μl/well of 2 μg/ml anti-Strep-HRP secondary antibody (Bio-Rad antibodies, MCA2489P, 1:5000) in HISPEC assay diluent (Bio-Rad Antibodies, BUF049) were added and incubated at RT for 1 h. After removal of this solution, ten washes with PBST were performed. […] For detection in the ELISA reader (Tecan Infinite M1000Pro Reader, Tecan Austria GmbH) excitation was performed at 320±25 nm and emission was detected at 430±35 nm.
Assay [4] deals with bovine serum albumin (BSA) (bovine, UniProt P02769 25-607). Described as above.
bovine serum albumin (BSA), sequence (P02769 25-607 limits assumed): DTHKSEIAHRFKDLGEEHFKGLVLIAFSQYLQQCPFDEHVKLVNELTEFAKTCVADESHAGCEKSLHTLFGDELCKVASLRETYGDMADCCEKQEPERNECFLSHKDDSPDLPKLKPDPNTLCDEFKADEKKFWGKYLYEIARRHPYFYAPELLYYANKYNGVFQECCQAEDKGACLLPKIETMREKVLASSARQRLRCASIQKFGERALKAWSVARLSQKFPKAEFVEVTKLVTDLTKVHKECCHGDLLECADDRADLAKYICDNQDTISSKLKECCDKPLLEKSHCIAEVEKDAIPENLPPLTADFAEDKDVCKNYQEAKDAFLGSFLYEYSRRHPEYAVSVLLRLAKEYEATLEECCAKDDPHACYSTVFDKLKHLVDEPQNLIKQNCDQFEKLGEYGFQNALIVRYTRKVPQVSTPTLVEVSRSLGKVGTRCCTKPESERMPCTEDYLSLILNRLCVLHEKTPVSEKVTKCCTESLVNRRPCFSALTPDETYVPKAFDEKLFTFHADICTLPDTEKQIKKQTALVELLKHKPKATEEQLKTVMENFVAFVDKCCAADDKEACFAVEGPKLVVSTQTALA
Description: as §2, §3
For the next assay, the target named is N1-CD33-His6. The assay is described as above.
For assay [5], the target named is T1, DLL1 antigen (recombinant DLL1 protein). Briefly: sandwich ELISA, capture AbD33906, detection AbD33905-HRP, DLL1 2 ug/ml.
Description: as §1
The target is the same in assay [6]. Briefly: sandwich ELISA, capture AbD33906, detection AbD33906-HRP, DLL1 2 ug/ml.
Description: as §1

Description for GST: as §2, §3
Description for N1-CD33-His6: as §2, §3

B1: AbD33905 (Fab fragment, monovalent) (Fab, V domains shown)
VH: EVQLLESGGGLVQPGGSLRLSCAASGFTFSSYAMHWVRQAPGKGLEWVSFISSGGSTTYYADSVKGRFTISRDNSKNTLYLQMNSLRAEDTAVYYCARFRSGYFDYWGQGTLVTVSS
VL: DIVMTQSPLSLPVTPGEPASISCRSSQSLVHSNGADYLNWYLQKPGQSPQLLIYKGSNRDSGVPDRFSGSGSGTDFTLKISRVEAEDVGVYYCQQGYDFPPFTFGQGTKVEIKR
notes: Monovalent Fab; also called Ab33905; monovalent AbD33905
For the molecule B1, the “emission value DLL1 antigen/emission value PBST” value in assay [1] came to 8 ratio; in assay [2] it was 66 ratio.

B2: AbD33905 in form of a bivalent Fab fragment fused to alkaline phosphatase followed by a FLAG-tag and Twin-Strep-tag (Fab, V domains shown)
VH: B1 VH
VL: B1 VL
notes: it is put on the heavy chain here; also called AbD33905 bivalent Fab fragment; not shown: alkaline phosphatase, then FLAG-tag and Twin-Strep-tag
As for B2, the Emission data worked out at 70 arbitrary units with GST, 15500 arbitrary units in assay [3], 71 arbitrary units in assay [4] and 46 arbitrary units in the assay with N1-CD33-His6.

B3: AbD33906 (Fab fragment, monovalent) (Fab, V domains shown)
VH: QVQLVQSGAEVKKPGSSVKVSCKASGGTFSSYAISWVRQAPGQGLEWMGGIIPQFGIANYAQKFQGRVTITADESTSTAYMELSSLRSEDTAVYYCAREGYSDYSAFDYWGQGTLVTVSS
VL: DIALTQPASVSGSPGQSITISCTGTSSDVGTYNYVNWYQQHPGKAPKVMIYRVSNRPSGVSNRFSGSKSGNTASLTISGLQAEDEADYYCSSWDEHSYVFGGGTKLTVLG
notes: also called AbD33906 Fab fragments
As for B3, the “emission value DLL1 antigen/emission value PBST” value in assay [5] turned out to be 132 ratio; in assay [6], 7 ratio.

The record behind these values is US20250052768A1 (UNIVERSIT T HEIDELBERG, published 2025).
